In the RNAGym collection of RNA variant scans (doi:10.7554/elife.90254):

B1: LINE1-mini (parent)
chain: GGCAGAGCUCAACACAGCGUGGCAAAGUGGCUGUGGCUAGACUGCC

Variants of: B1
Assay: self-cleavage, relative activity (ratio to wild type); higher = more cleavage; in vitro, sequencing; the parent is a self-cleaving ribozyme

| Variant | self-cleavage |
| --- | --- |
| GGCAGAGCUCAACACAGCGUGGCAAAGUGGCCGUGGCUUGACUGCC [U32C A39U] | 0.15 |
| GGCAGAGCUCAACACAGCGUGGCAAAGUGGCCGUGGCAAGACUGCC [U32C U38A] | 0.37 |
| GGCAGAGCUCAACACAGCGUGGCAAAGUGGCCGUGGCGAGACUGCC [U32C U38G] | 0.01 |
| GGCAGAGCUCAACACAGCGUGGCAAAGUGGCCGUGGCCAGACUGCC [U32C U38C] | 0.06 |
| GGCAGAGCUCAACACAGCGUGGCAAAGUGGCGGUGGCUCGACUGCC [U32G A39C] | 0.09 |
| GGCAGAGCUCAACACAGCGUGGCAAAGUGGCGGUGGCUUGACUGCC [U32G A39U] | 0.1 |
| GGCAGAGCUCAACACAGCGUGGCAAAGUGGCGGUGGCUGGACUGCC [U32G A39G] | 0.8 |
| GGCAGAGCUCAACACAGCGUGGCAAAGUGGCCGUGGCUACACUGCC [U32C G40C] | 0.03 |
| GGCAGAGCUCAACACAGCGUGGCAAAGUGGCCGUGGCUAUACUGCC [U32C G40U] | 0.07 |
| GGCAGAGCUCAACACAGCGUGGCAAAGUGGCCGUGGCUAAACUGCC [U32C G40A] | 0.06 |
| GGCAGAGCUCAACACAGCGUGGCAAAGUGGCGGUGGCUACACUGCC [U32G G40C] | 0.07 |
| GGCAGAGCUCAACACAGCGUGGCAAAGUGGCGGUGGCUAUACUGCC [U32G G40U] | 0.11 |
| GGCAGAGCUCAACACAGCGUGGCAAAGUGGCGGUGGCUAAACUGCC [U32G G40A] | 0.05 |
| GGCAGAGCUCAACACAGCGUGGCAAAGUGGCGAUGGCUAGACUGCC [U32G G33A] | 0.08 |
| GGCAGAGCUCAACACAGCGUGGCAAAGUGGCGUUGGCUAGACUGCC [U32G G33U] | 0.07 |
| GGCAGAGCUCAACACAGCGUGGCAAAGUGGCGCUGGCUAGACUGCC [U32G G33C] | 0.09 |
| GGCAGAGCUCAACACAGCGUGGCAAAGUGGCGGUGGCCAGACUGCC [U32G U38C] | 0.12 |
| GGCAGAGCUCAACACAGCGUGGCAAAGUGGCGGUGGCGAGACUGCC [U32G U38G] | 0.03 |
| GGCAGAGCUCAACACAGCGUGGCAAAGUGGCGGUGGCAAGACUGCC [U32G U38A] | 0.07 |

| Variant | self-cleavage |
| --- | --- |
| GGCAGAGCUCAACACAGCGUGGCAAAGUGGCGGUGGCUAGGCUGCC [U32G A41G] | 0.08 |
| GGCAGAGCUCAACACAGCGUGGCAAAGUGGCGGUGGCUAGCCUGCC [U32G A41C] | 0.05 |
| GGCAGAGCUCAACACAGCGUGGCAAAGUGGCGGUGGCUAGUCUGCC [U32G A41U] | 0.07 |
| GGCAGAGCUCAACACAGCGUGGCAAAGUGGCCGUGGCUAGACUCCC [U32C G44C] | 0.09 |
| GGCAGAGCUCAACACAGCGUGGCAAAGUGGCCGUGGCUAGACUACC [U32C G44A] | 0.07 |
| GGCAGAGCUCAACACAGCGUGGCAAAGUGGCCGUGGCUAGACUUCC [U32C G44U] | 0.07 |
| GGCAGAGCUCAACACAGCGUGGCAAAGUGGCGGUGGCUAGACUGCA [U32G C46A] | 0.2 |
| GGCAGAGCUCAACACAGCGUGGCAAAGUGGCGGUGGCUAGACUGCU [U32G C46U] | 0.17 |
| GGCAGAGCUCAACACAGCGUGGCAAAGUGGCGGUGGCUAGACUGCG [U32G C46G] | 0.1 |
| GGCAGAGCUCAACACAGCGUGGCAAAGUGGCUAUGGCUAGACUACC [G33A G44A] | 0.1 |
| GGCAGAGCUCAACACAGCGUGGCAAAGUGGCCGUGGCUAGUCUGCC [U32C A41U] | 0.2 |
| GGCAGAGCUCAACACAGCGUGGCAAAGUGGCCGUGGCUAGCCUGCC [U32C A41C] | 0.09 |
| GGCAGAGCUCAACACAGCGUGGCAAAGUGGCCGUGGCUAGGCUGCC [U32C A41G] | 0.07 |
| GGCAGAGCUCAACACAGCGUGGCAAAGUGGCGGUAGCUAGACUGCC [U32G G35A] | 0.09 |
| GGCAGAGCUCAACACAGCGUGGCAAAGUGGCGGUUGCUAGACUGCC [U32G G35U] | 0.06 |
| GGCAGAGCUCAACACAGCGUGGCAAAGUGGCGGUCGCUAGACUGCC [U32G G35C] | 0.1 |
| GGCAGAGCUCAACACAGCGUGGCAAAGUGGCUAUGGCUAGACUGUC [G33A C45U] | 0.1 |
| GGCAGAGCUCAACACAGCGUGGCAAAGUGGCUAUGGCUAGACUGAC [G33A C45A] | 0.1 |
| GGCAGAGCUCAACACAGCGUGGCAAAGUGGCUAUGGCUAGACUGGC [G33A C45G] | 0.07 |

| Variant | self-cleavage |
| --- | --- |
| GGCAGAGCUCAACACAGCGUGGCAAAGUGGCGGUGGCUAGACUGCC [U32G] | 0.19 |
| GGCAGAGCUCAACACAGCGUGGCAAAGUGGCCGUGGCUAGACCGCC [U32C U43C] | 0.05 |
| GGCAGAGCUCAACACAGCGUGGCAAAGUGGCCGUGGCUAGACGGCC [U32C U43G] | 0.13 |
| GGCAGAGCUCAACACAGCGUGGCAAAGUGGCCGUGGCUAGACAGCC [U32C U43A] | 0.05 |
| GGCAGAGCUCAACACAGCGUGGCAAAGUGGCUAUGGCUCGACUGCC [G33A A39C] | 0.08 |
| GGCAGAGCUCAACACAGCGUGGCAAAGUGGCUAUGGCUUGACUGCC [G33A A39U] | 0.06 |
| GGCAGAGCUCAACACAGCGUGGCAAAGUGGCUAUGGCUGGACUGCC [G33A A39G] | 0.09 |
| GGCAGAGCUCAACACAGCGUGGCAAAGUGGCUAUGGCUAGAUUGCC [G33A C42U] | 0.14 |
| GGCAGAGCUCAACACAGCGUGGCAAAGUGGCUAUGGCUAGAAUGCC [G33A C42A] | 0.08 |
| GGCAGAGCUCAACACAGCGUGGCAAAGUGGCUAUGGCUAGAGUGCC [G33A C42G] | 0.06 |
| GGCAGAGCUCAACACAGCGUGGCAAAGUGGCUAUGGAUAGACUGCC [G33A C37A] | 0.12 |
| GGCAGAGCUCAACACAGCGUGGCAAAGUGGCUAUGGGUAGACUGCC [G33A C37G] | 0.04 |
| GGCAGAGCUCAACACAGCGUGGCAAAGUGGCUAUGGUUAGACUGCC [G33A C37U] | 0.04 |
| GGCAGAGCUCAACACAGCGUGGCAAAGUGGCGGUGGGUAGACUGCC [U32G C37G] | 0.04 |
| GGCAGAGCUCAACACAGCGUGGCAAAGUGGCGGUGGAUAGACUGCC [U32G C37A] | 0.09 |
| GGCAGAGCUCAACACAGCGUGGCAAAGUGGCGGUGGUUAGACUGCC [U32G C37U] | 0.07 |
| GGCAGAGCUCAACACAGCGUGGCAAAGUGGCUAUCGCUAGACUGCC [G33A G35C] | 0.05 |
| GGCAGAGCUCAACACAGCGUGGCAAAGUGGCUAUAGCUAGACUGCC [G33A G35A] | 0.07 |
